From patent US20220380801A1, “TRIPARTITE SYSTEMS FOR PROTEIN DIMERIZATION AND METHODS OF USE” (priority 2019, published 2022)
Read-outs that look alike come from different tables or passages of the source.

B1: PRSIM_01: scFv PRSIM binding molecule, SEQ ID NO: 10 (protein)
scFv: QVQLVQSGAEVKKPGSSVKVSCKASGGTFSSYAISWVRQAPGQGLEWMGGIIPIFGTANYAQKFQGRVTITADESTSTAYMELSSLRSEDTAVYYCARGQGYITVFDYWGQGTLVTVSSGGGGSGGGGSGGGGSAQSVLTQPPSASGTPGQRVTISCSGSSSNIGSNTVNWYQQLPGTAPKLLIYSNNQRPSGVPDRFSGSKSGTSASLAISGLQSEDEADYYCAAWDHHWEQVVFGGGTKLTVL
modifications: PRSIM_01
B2: PRSIM_32: Tn3 PRSIM binding molecule, SEQ ID NO: 6 (protein)
chain: RLDAPSQIEVKDVTDTTALITWWSPRYYYASISGFELTYGIKDVPGDRTTIKLDYASNDYSIGNLKPDTEYEVSLISWNYGDWRYSSSNPAKITFKTGL
modifications: PRSIM_32
B3: PRSIM_36: Tn3 PRSIM binding molecule, SEQ ID NO: 8 (protein)
chain: RLDAPSQIEVKDVTDTTALITWSWPRDDDYDIWYFELTYGIKDVPGDRTTIKLLNYASPYSIGNLKPDTEYEVSLISVVPDTYGRGTSNPAKITFKTGL
modifications: PRSIM_36
B4: PRSIM_47: Tn3 PRSIM binding molecule, SEQ ID NO: 9 (protein)
chain: RLDAPSQIEVKDVTDTTALITWSRPGVSIWYFELTYGIKDVPGDRTTIKLDYRSYYYSIGNLKPDTEYEVSLISGSYGLVGVRASNPAKITFKTGL
modifications: PRSIM_47

Legend:
[1] = test system: luciferase reporter gene in HEK293 cells; experiment: Transcriptional regulation assay (split transcription factor), luciferase reporter; format: cell-based, human; details: one copy; for EC50: simeprevir dose-response
From the text: The iDimerize regulated transcription system (Takara) was used to test the ability of PRSIM-based CIDs to regulate gene expression. […] The DBD and AD are separately fused to the two protein components of a CID such that, only in the presence of the small molecule inducer, the AD is brought into close proximity to the DBD, recruiting the transcription machinery to a promoter harbouring the DBD recognition sites. The iDimerize regulated transcription system (Takara) provides two vectors, pHet-Act1-2 and pZFHD1-Luciferase. The pHet-Act1-2 vector encodes two fusion proteins that represent a positive control: one is a fusion between FRB (T82L mutant; DmrC) and an activation domain (AD) from human p65 (SEQ ID NO: 42); the other is a fusion protein comprised of a DNA binding domain (ZFHD1) (SEQ ID NO: 43) fused to three tandem copies of FKBP12 (DmrA). These sequences are preceded by a CMV promoter and separated by an internal ribosome entry site (IRES). The ZFHD1 vector encodes luciferase preceded by an inducible promoter consisting of 12 copies of the recognition sequence of the ZFHD1 DBD upstream of a minimal IL-2 promoter. Binding of the DBD to its recognition sequence and recruitment of the transcriptional machinery by the AD initiates transcription of the luciferase reporter gene. The DNA sequence encoding HCV NS3/4A PR (S139A) was purchased as a DNA string from GeneArt and cloned into the pHet-Act1-2 vector as either an N-terminal fusion partner to the activation domain (SEQ ID NO: 44) (replacing FRB) or as a C-terminal fusion partner to the DNA binding domain (SEQ ID NO: 45) (replacing FKBP12) with flexible linkers (TGGGGSGGGGS (SEQ ID NO: 185) and SA, respectively) between the fusion partners. Subsequently, sequences encoding one copy of a panel of 12 PRSIM molecules (Table 2) were purchased as DNA strings from GeneArt and were cloned using Gibson assembly into the HCV NS3/4A PR (S139A)-containing pHetAct1-2 constructs described above, as a fusion partner to either the DBD (SEQ ID NOS: 46-56) or AD (SEQ ID NOS: 57-67), respectively. An equivalent construct was generated to replace the three copies of FKBP12 in pHet-Act1-2 with a single copy of FKBP12. The sequence of the constructs encoding both activation domain and DNA-binding domain fusion proteins was confirmed by Sanger sequencing of the entire coding region.
Sequences encoding the three HCV NS3/4A PR (S139A) mutants (Table 6) were purchased as DNA strings from GeneArt and were cloned using Gibson assembly into the pHetAct1-2 HCV NS3/4A PR (S139A)-PRSIM_23 (3 tandem copy) construct described above as a fusion partner to the AD (SEQ ID NOs: 211-216).
All transcriptional regulation assays were performed in adherent HEK293 cells cultured in 384-well plates. Cells enzymatically dissociated from a tissue culture flask were counted and plated at 7.5×10^3 cells/well in a 384-well plate. The plates were incubated overnight at 37° C. with 5% CO2 to allow the cells to adhere. On day 2, the cells were co-transfected with a pHet-Act1-2 plasmid (containing the FRB:FKBP12 control fusion proteins (Clontech) or the HCV NS3/4A PR (S139A):PRSIM fusion proteins) and a pZFHD1 plasmid (encoding either luciferase (Clontech) or NanoLuc-PEST (as described above)) using Lipofectamine LTX (ThermoFisher). On day 3, wells were treated with different concentrations of either A/C heterodimeriser (for the FRB:FKBP12 control), simeprevir or with vehicle control, and 24 hours later luminescence was quantified with an Envision plate reader immediately following addition of SteadyGlo luciferase substrate (Promega) or Nano-Glo Vivazine luciferase substrate (Promega). Alternatively, reverse transfections were carried out on Day 1, addition of dimeriser on Day 2 and luminescence quantified 24 hours later on Day 3.
Luminescence readings were converted into fold-change by dividing the signal in the presence of simeprevir by that in the absence of simeprevir.

[2] = test system: split Nanoluciferase (LgBiT/SmBiT) reconstitution in HEK293 cells; experiment: Split NanoLuc reconstitution assay (NanoBiT); format: cell-based, human; details: 100 nM simeprevir over no simeprevir; LgBiT fused to the C-terminus of the PRSIM binding module
Experimental: The ability of the PRSIM binding molecules to promote dimerization of two proteins to which they are fused was assessed with the NanoBiT system (Promega) that measures the reconstitution of a split Nanoluciferase (NanoLuc) and the resultant luminescence upon supply of a live cell imaging Nano-Glo NanoLuc substrate (FIG. 8). In the NanoBiT system, one interaction partner is fused via a flexible linker to an 18 kDa fragment of NanoLuc termed LgBiT (for “large bit”) (SEQ ID NO: 16) and the other is fused via an equivalent linker to a 1.3 kDa peptide SmBiT (“small bit”) (SEQ ID NO: 17). LgBit and SmBiT have a low affinity (190 μM) for each other in the absence of interacting partners and will not reconstitute to form an active luciferase enzyme. Once fused to the interacting proteins of a CID and supplied with inducer, they will reconstitute, and luminescence can be measured. The NanoBiT system supplies two sets of control proteins fused to LgBiT and SmBiT: a set of constitutively interacting proteins PRKAR2A:PRKACA; and the FRB:FKBP12 pair whose dimerization can be induced with rapamycin.
To establish the optimal orientation of the HCV NS3/4A PR (S139A) and PRSIM components, constructs whereby HCV NS3/4A PR (S139A) was fused at either the N- or C-terminus to SmBiT (SEQ ID NOs: 18 and 19, respectively) and a parallel set of constructs for each PRSIM binding module fused to either the N- or C-terminus of LgBiT (SEQ ID NOS: 20-30 and 31-41, respectively). The NanoBiT kit (Promega) supplies a set of vectors enabling these constructs to be generated. DNA strings encoding HCV NS3/4A PR (S139A) and the PRSIM molecules were purchased from GeneArt and amplified via PCR with primers with extensions containing restriction sites compatible with the NanoBiT vectors and were cloned via Gibson assembly. All constructs were verified via Sanger sequencing of the entire coding sequence.
All NanoBiT screens were performed in adherent HEK293 cells cultured in 96-well plates. Cells enzymatically dissociated from a tissue culture flask were counted and plated at 2×10^4 cells/well in a white, opaque-bottomed 96-well plate (Costar 3917). The plates were incubated overnight at 37° C. with 5% CO2 to allow the cells to adhere. On day 2, plasmids were co-transfected with Lipofectamine LTX (ThermoFisher) at a final concentration of 100 ng/well (50 ng/plasmid, one encoding a SmBiT fusion, the other a LgBiT fusion). On day 3, wells were treated with 100 nM of the appropriate small molecule inducer (rapamycin (FRB:FKBP12) or simeprevir (HCV NS3/4A PR:PRSIM)) or vehicle control, and luminescence was quantified with an Envision plate reader immediately following addition of Nano-Glo Live Cell Substrate (Promega).

HCV NS3/4A PR (S139A) [3] = target: T1, HCV NS3/4A PR (S139A) (Hepatitis C virus subtype 1a, UniProt A8DG50, A1066T/I1043Q/I1044E/L1039E/L1040E/L1047Q/S1165A, form not given); experiment: Biacore 8K binding kinetics of PRSIM binding molecules; details: 10 nM simeprevir present
Experimental: The scFv and Tn3 PRSIM binding molecules were covalently immobilised to a CM5 chip surface using standard amine coupling techniques at a concentration of 1 μg/ml in 10 mM sodium acetate pH 4.5.
(§1) The HCV NS3/4A PR (S139A), or BSA control, was diluted 1:4 (1.25-20 nM)±10 nM simeprevir in 10 mM Hepes pH 7.4, 150 mM NaCl, 0.05% Surfactant P20, 0.01% DMSO, ensuring constant simeprevir and DMSO concentration. The samples were flowed over the chip at 50 μl/min using single cycle kinetics, with 120 sec association and 600 sec dissociation. The chip surface was regenerated with two 20 sec pulses of 10 mM Glycine-HCl pH 3.0. The final sensorgrams were analysed using the Biacore 8K Evaluation Software and the affinity constant KD was determined using a 1:1 binding model. The same method was used for measuring the affinity of the HCV NS3/4A PR mutants for PRSIM_23 with minor deviations. The mutants were diluted 1:4 (2.5-40 nM)±simeprevir in 10 mM Hepes pH 7.4, 150 mM NaCl, 0.05% Surfactant P20, 0.08% DMSO, ensuring constant simeprevir and DMSO concentration. The samples were flowed over the chip at 50 μl/min using single cycle kinetics, with 180 sec association and 600 sec dissociation.

BSA = BSA (Bos taurus, UniProt P02769); experiment: Biacore 8K BSA control; format: binding; design: key: # = no binding; * = minimal non-specific binding; details: 10 nM simeprevir present
Experimental: as §1

HCV NS3/4A PR (S139A) [4] = target: T1, HCV NS3/4A PR (S139A); experiment: HTRF binding screen; details: in the presence of simeprevir
Experimental: scFv and Tn3 PRSIM binding molecules that were selective for the HCV NS3/4A PR (S139A) were identified in homogeneous time-resolved fluorescence (HTRF®) assays run in parallel to measure binding in the presence and absence of simeprevir. HCV NS3/4A PR (S139A), and serial dilutions of purified PRSIM binding molecules, were prepared in assay buffer (PBS containing 0.4 M potassium fluoride and 0.1% BSA). Streptavidin cryptate (Cisbio) was pre-mixed with either anti-FLAG XL665 (to detect the Tn3 molecules) or anti-c-myc XL665 (to detect the scFv molecules) in assay buffer. For each assay 2.5 μl of sample titration was added to 2.5 μl HCV NS3/4A PR (S139A) and 2.5 μl of pre-mixed detection reagents. Either 2.5 μl simeprevir or 2.5 μl of a DMSO blank were also added to each well. Background was defined using wells with zero sample addition. Assay plates were incubated overnight at 4° C., prior to reading the time resolved fluorescence at 620 nm and 665 nm emission wavelengths using a PerkinElmer Envision plate reader. Data was analysed by calculating % Delta F values for each sample. Delta F was determined according to equation 1.
% Delta F=((sample 665 nm/620 nm ratio value)−(background 665 nm/620 nm ratio value)/(background 665 nm/620 nm ratio value))×100 Equation 1
Selective binding molecules are defined as those scFv and Tn3 PRSIM binding molecules that bind to HCV NS3/4A PR (S139A) in complex with simeprevir and no binding to HCV NS3/4A PR (S139A).

[5] = PRSIM fused to DBD, read-out: EC50
[6] = PRSIM fused to AD, read-out: EC50

Molecule	Max fold change ([1]; PRSIM fused to AD)	EC50 ([1]; PRSIM fused to AD)	Max fold change ([1]; PRSIM fused to DBD)	EC50 [1, 5]	fold-change in luminescence [2]	Rmax (HCV NS3/4A PR (S139A) [3])	ka (HCV NS3/4A PR (S139A) [3])	kd (HCV NS3/4A PR (S139A) [3])	EC50 [1, 6]	BSA control (BSA)	HTRF max. signal (% delta F) (HCV NS3/4A PR (S139A) [4])
B1	5.83	Ambiguous	86.76	6.99 nM	16 fold	–	–	–	–	–	–
B2	2.2	–	65.77	29.3 nM	–	19.9 RUs	2.51 E+09 M^−1 s^−1	40.1 s⁻¹	12.3 nM	#	1955 % delta F
B3	33.74	–	73.3	5.66 nM	–	214.4 RUs	5.15e+06 M⁻¹ s⁻¹	0.0498 s⁻¹	3.54 nM	#	1440 % delta F
B4	3.85	–	3	8.87 nM	–	9 RUs	1.32e+10 M⁻¹ s⁻¹	51.2 s⁻¹	6.15 nM	#	1367 % delta F
